Measured values: US20220119534A1 (DRAGONFLY THERAPEUTICS, published 2022)
Changes are numbered by the printed parent chain. Numbers in names are those of the source. Where “and” joins values, the source holds several entries; their conditions need not be identical. Equal entries are not always repeated. Each block holds one binder with its values, some of them ahead of it.

Columns and labels:
[1] = biological target: T1, mFc-hNKG2D (human, UniProt P26718 73-216); assay: SPR Biacore 8K 37 C; mFc-hNKG2D captured on anti-mFc chip, TriNKET as analyte; steady state fit; after 4 wks 40 C in phosphate/citrate/NaCl pH 7.8, n=2
T1 construct: extracellular domain; Made in house (Dragonfly Tx); the order of tag and ECD follows the name mFc-hNKG2D; also called mFc-tagged human NKG2D; not shown: mouse Fc tag
T1 sequence (looked up): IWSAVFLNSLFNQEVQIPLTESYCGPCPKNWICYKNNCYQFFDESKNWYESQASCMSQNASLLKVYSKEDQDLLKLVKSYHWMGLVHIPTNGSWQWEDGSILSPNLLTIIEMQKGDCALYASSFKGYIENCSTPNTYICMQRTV

[2] = biological target: T2, mFc-cNKG2D (cynomolgus monkey, UniProt P61252 73-216); assay: SPR Biacore 37 C; mFc-tagged cyno NKG2D dimer, TriNKET as analyte; steady state affinity fit
T2 construct: extracellular domain; Made in house (Dragonfly Tx); also called recombinant cyno NKG2D extracellular domain (ECD); mFc-tagged cyno NKG2D dimer; not shown: mouse Fc tag
T2 sequence (looked up): T1 sequence (looked up) with D43N, T133I

[3] = biological target: T1, mFc-hNKG2D; assay: SPR Biacore 8K 37 C; mFc-hNKG2D captured on anti-mFc chip, TriNKET as analyte; 1:1 kinetic fit; pH 8.0 control
Protocol: Association was monitored for 60 seconds and dissociation was monitored for 60 seconds. Surfaces were regenerated between cycles with three pulses of 10 mM glycine-HCl, pH 1.7 injected for 20 seconds at 100 μL/min. HBS-EP+ (1×) buffer was used throughout the experiment. Data were analyzed using Biacore 8K Insight evaluation software (GE Healthcare).

[4] = biological target: T3, Human CLEC12A-His (recombinant, K244 WT) (human, UniProt Q5QGZ9 65-265); assay: SPR, two-state fit (ka1); after forced oxidation
T3 construct: Made in house (Dragonfly Tx); also called hCLEC12A; hCLEC12A-His; not shown: His tag
T3 sequence: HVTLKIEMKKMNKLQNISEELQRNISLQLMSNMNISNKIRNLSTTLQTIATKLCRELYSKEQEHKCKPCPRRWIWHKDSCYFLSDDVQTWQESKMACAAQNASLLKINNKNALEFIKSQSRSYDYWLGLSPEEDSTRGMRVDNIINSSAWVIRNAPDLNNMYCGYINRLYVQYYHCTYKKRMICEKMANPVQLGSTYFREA

[5] = biological target: T3, Human CLEC12A-His (recombinant, K244 WT); assay: SPR, two-state fit (kd1); after 4 wks 40C in CST pH 7.0
Protocol: (§1) Briefly, human Fc specific antibodies were covalently immobilized at a density ˜8000-10000 resonance units (RU) on carboxy methyl dextran matrix of a CM5 biosensor chip via amine-coupling chemistry to create an anti-hFc IgG chip. […] Association was monitored for 300 seconds and dissociation was monitored for 600 seconds. Surfaces were regenerated between cycles with three pulses of 10 mM glycine-HCl, pH 1.7 injected for 20 seconds at 100 μl/min. HBS-EP+ (1×) with 0.1 mg/ml BSA was used as running buffer throughout the experiment. Experiments were performed at physiological temperature of 37° C. To obtain kinetic rate constants and overall binding affinity, double-referenced data were fit to a two-state kinetic model using Biacore 8K Insight Evaluation software (Cytiva).

[6] = biological target: T3, Human CLEC12A-His (recombinant, K244 WT); assay: SPR, two-state fit (kd1); control sample
Protocol: as §1

[7] = biological target: T4, Human CD16a F158 (human, UniProt P08637 17-208, biotinylated); assay: SPR, steady state fit; average for AB0192
T4 construct: Bought recombinant receptor; also called hFcγRIIIa F158

[8] = biological target: T5, recombinant human CD32a H131 (human, UniProt P12318 36-218, limits assumed, biotinylated); assay: SPR, summary table
T5 construct: also called FcγRIIa H131
T5 sequence (looked up): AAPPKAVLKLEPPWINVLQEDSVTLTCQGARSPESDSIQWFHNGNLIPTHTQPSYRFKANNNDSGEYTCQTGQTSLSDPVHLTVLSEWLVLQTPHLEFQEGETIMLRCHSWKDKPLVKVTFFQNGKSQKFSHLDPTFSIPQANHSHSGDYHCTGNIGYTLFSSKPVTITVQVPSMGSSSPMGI
Description: (§2) Human and cyno CD64, high and low affinity alleles of CD16a (V158 and F158, respectively), two alleles of CD32a (H131 and R131), CD16b, CD32b and cynomolgus CD16 were captured via biotin on a primed Biacore chip, prepared according to the manufacturer's instructions.

[9] = biological target: T6, recombinant human CD32b (human, UniProt P31994 46-217, limits assumed, biotinylated); assay: SPR, summary table
T6 construct: also called FcγRIIb
T6 sequence (looked up): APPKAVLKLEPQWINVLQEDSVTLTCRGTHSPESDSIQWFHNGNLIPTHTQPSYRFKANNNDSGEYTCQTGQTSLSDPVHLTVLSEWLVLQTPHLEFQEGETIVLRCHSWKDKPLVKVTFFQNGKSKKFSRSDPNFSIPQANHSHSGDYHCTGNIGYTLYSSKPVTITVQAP
Description: as §2

[10] = biological target: T7, recombinant human CD16a F158 (human, UniProt P08637 17-208); assay: SPR, summary table
T7 construct: also called FcγRIIIa F158
Description: as §2

[11] = biological target: T8, recombinant cynomolgus CD16 (cynomolgus monkey, UniProt Q8SPW2 17-208, biotinylated); assay: SPR, summary table
T8 construct: also called cFcγRIII; cyno CD16
Description: as §2

[12] = biological target: T9, recombinant human CD64 (human, UniProt P12314 16-288, biotinylated); assay: SPR, summary table
T9 construct: also called hFcγRI; hCD64
Description: as §2

[13] = biological target: T10, recombinant cynomolgus CD64 (cynomolgus monkey, UniProt A0A2K5U901 33-309, Biotinylated for capture on the CAP chip; the biotin site is not stated.); assay: SPR, summary table
T10 construct: also called cFcγRI; cyno CD64; not shown: The vendor's biotinylation and purification tag, used for capture via biotin

[14] = biological target: T11, recombinant human CD16b (human, UniProt O75015 17-200, limits assumed, biotinylated); assay: SPR, summary table
T11 construct: also called FcγRIIIb
Description: as §2

[15] = biological target: T12, recombinant human CD32a R131 (human, UniProt P12318 36-218, limits assumed, biotinylated); assay: SPR, summary table
T12 construct: also called FcγRIIa R131
T12 sequence (looked up): T5 sequence (looked up) with H132R
Description: as §2

[16] = biological target: T13, recombinant human CD16a V158 (human, UniProt P08637 17-208, biotinylated); assay: SPR, summary table
T13 construct: also called FcγRIIIa V158; hCD16aV
Description: as §2

[17] = biological target: T14, recombinant human CLEC12A-His (human, UniProt Q5QGZ9 65-265); assay: SPR
T14 construct: also called hCLEC12A-His; hCLEC12A
T14 sequence: T3 sequence

T8 sequence (Q8SPW2 17-208 limits assumed): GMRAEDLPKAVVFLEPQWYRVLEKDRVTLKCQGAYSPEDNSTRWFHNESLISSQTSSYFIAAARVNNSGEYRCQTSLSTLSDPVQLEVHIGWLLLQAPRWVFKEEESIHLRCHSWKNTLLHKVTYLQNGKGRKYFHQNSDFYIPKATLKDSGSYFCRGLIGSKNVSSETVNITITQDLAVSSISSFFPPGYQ
T7 sequence (P08637 17-208 limits assumed): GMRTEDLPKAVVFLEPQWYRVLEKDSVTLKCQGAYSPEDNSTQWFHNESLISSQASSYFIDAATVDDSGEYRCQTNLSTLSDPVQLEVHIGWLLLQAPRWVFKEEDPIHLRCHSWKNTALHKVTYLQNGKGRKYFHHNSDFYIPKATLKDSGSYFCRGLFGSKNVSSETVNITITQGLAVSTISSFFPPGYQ
T4 sequence (P08637 17-208 limits assumed): as above
T13 sequence (P08637 17-208 F176V limits assumed): as the sequence (P08637 17-208 limits assumed) above, with F160V counted along it
T10 sequence (A0A2K5U901 entry or part of it limits assumed): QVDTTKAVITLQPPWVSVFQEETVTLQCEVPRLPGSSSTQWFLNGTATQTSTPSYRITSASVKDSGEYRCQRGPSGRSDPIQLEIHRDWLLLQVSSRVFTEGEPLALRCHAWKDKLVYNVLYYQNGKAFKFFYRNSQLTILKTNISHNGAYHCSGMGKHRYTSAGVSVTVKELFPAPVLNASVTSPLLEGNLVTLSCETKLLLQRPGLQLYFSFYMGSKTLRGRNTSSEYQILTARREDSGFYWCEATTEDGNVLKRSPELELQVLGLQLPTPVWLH
T9 sequence (P12314 16-288 limits assumed): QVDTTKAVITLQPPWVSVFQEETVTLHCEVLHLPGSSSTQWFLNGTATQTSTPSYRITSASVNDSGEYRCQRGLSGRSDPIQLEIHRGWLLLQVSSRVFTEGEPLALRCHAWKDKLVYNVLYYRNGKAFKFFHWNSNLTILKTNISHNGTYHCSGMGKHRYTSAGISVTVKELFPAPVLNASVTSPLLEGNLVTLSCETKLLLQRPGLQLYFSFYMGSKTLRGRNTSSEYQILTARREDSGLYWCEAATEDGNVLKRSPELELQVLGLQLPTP
T11 sequence (O75015 17-200 limits assumed): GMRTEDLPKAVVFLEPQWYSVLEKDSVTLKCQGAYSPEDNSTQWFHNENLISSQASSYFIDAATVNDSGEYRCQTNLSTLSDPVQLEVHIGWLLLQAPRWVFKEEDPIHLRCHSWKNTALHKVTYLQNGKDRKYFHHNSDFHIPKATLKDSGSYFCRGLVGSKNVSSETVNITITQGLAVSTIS

- Kd [1]: 0.872 µM
- Kd [2]: 0.829 µM and 0.828 µM and 0.935 µM and 0.719 µM
- Kd [3]: 0.694 µM
- koff [3]: 0.125 s⁻¹
- kon [3]: 180000 M⁻¹ s⁻¹
B1: F3'-1602 TriNKET (bispecific antibody, human IgG1, kappa)
chain: QLQLQESGPGLVKPSETLSLTCTVSGFSLTNYGLHWIRQPPGKCLEWIGVIWSGGKTDYNPSLKSRVTISKDTSKNQFSLKLSSVQAADTAVYYCAKYDYDDSLDYWGQGTLVTVSSGGGGSGGGGSGGGGSGGGGSDIQMTQSPSSLSASVGDRVTITCHASQNINFWLSWYQQKPGKAPKLLIYEASNLHTGVPSRFSGSGSGTRFTLTISSLQPEDIATYYCQQSHSYPLTFGCGTKLEIKGSDKTHTCPPCPAPELLGGPSVFLFPPKPKDTLMISRTPEVTCVVVDVSHEDPEVKFNWYVDGVEVHNAKTKPREEQYNSTYRVVSVLTVLHQDWLNGKEYKCKVSNKALPAPIEKTISKAKGQPREPRVYTLPPCRDELTKNQVSLTCLVKGFYPSDIAVEWESNGQPENNYKTTPPVLVSDGSFTLYSKLTVDKSRWQQGNVFSCSVMHEALHNHYTQKSLSLSPG
heavy: EVQLVESGGGLVKPGGSLRLSCAASGFTFSSYSMNWVRQAPGKGLEWVSSISSSSSYIYYADSVKGRFTISRDNAKNSLYLQMNSLRAEDTAVYYCARGAPIGAAAGWFDPWGQGTLVTVSSASTKGPSVFPLAPSSKSTSGGTAALGCLVKDYFPEPVTVSWNSGALTSGVHTFPAVLQSSGLYSLSSVVTVPSSSLGTQTYICNVNHKPSNTKVDKKVEPKSCDKTHTCPPCPAPELLGGPSVFLFPPKPKDTLMISRTPEVTCVVVDVSHEDPEVKFNWYVDGVEVHNAKTKPREEQYNSTYRVVSVLTVLHQDWLNGKEYKCKVSNKALPAPIEKTISKAKGQPREPQVCTLPPSRDELTENQVSLTCLVKGFYPSDIAVEWESNGQPENNYKTTPPVLDSDGSFFLYSWLTVDKSRWQQGNVFSCSVMHEALHNHYTQKSLSLSPG
light: DIQMTQSPSSVSASVGDRVTITCRASQGISSWLAWYQQKPGKAPKLLIYAASSLQSGVPSRFSGSGSGTDFTLTISSLQPEDFATYYCQQGVSFPRTFGGGTKVEIKRTVAAPSVFIFPPSDEQLKSGTASVVCLLNNFYPREAKVQWKVDNALQSGNSQESVTEQDSKDSTYSLSSTLTLSKADYEKHKVYACEVTHQGLSSPVTKSFNRGEC
notes: Trispecific F3' format: CLEC12A scFv-Fc paired with NKG2D Fab-Fc; Stressed and control samples of the stability studies are the same molecule; also called AB0237

- kon [4]: 9.93e+06 M⁻¹ s⁻¹
- koff [5]: 0.0373 s⁻¹
- koff [6]: 0.0476 s⁻¹
B2: AB0089 TriNKET (bispecific antibody, human IgG1, kappa)
chain: B1 chain with S53V, K56A, K71V, Y98G, D101G, S103T, R207D, I220F
heavy: B1 heavy
light: B1 light
notes: F3' format heterodimer of three chains; human IgG1 Fc with EW-RVT and Y349C/S354C mutations; also called AB0089 Lot AB0089-002; CLEC12A TriNKET AB0089

- Kd [7]: 0.68 µM
B3: AB0192 TriNKET (other)
chain: EVQLVESGGGVVQPGGSLRLSCAASGFTFNAFGMHWVRQAPGKCLEWVAFISSGSTSIYYANTVKGRFTISRDNSKNTLYLQMNSLRAEDTAVYYCARDGYPTGGAMDYWGQGTSVTVSSGGGGSGGGGSGGGGSGGGGSDIQMTQSPSSLSASVGDRVTITCKASQDIYNYLSWFQQKPGKAPKPLIYRANILVSGVPSRFSGSGSGQDYTFTISSLQPEDIATYYCLQFDAFPFTFGCGTKLEIKGSDKTHTCPPCPAPELLGGPSVFLFPPKPKDTLMISRTPEVTCVVVDVSHEDPEVKFNWYVDGVEVHNAKTKPREEQYNSTYRVVSVLTVLHQDWLNGKEYKCKVSNKALPAPIEKTISKAKGQPREPRVYTLPPCRDELTKNQVSLTCLVKGFYPSDIAVEWESNGQPENNYKTTPPVLVSDGSFTLYSKLTVDKSRWQQGNVFSCSVMHEALHNHYTQKSLSLSPG
heavy: B1 heavy
light: B1 light
notes: the condition stands under assay; also called AB0192 Lot AB0192-005

- Kd [8]: 0.9 µM
- Kd [9]: 6.6 µM
- Kd [10]: 1.11 µM
- Kd [11]: 0.306 µM
- Kd [12]: 0.0052 µM
- Kd [13]: 0.002 µM
- Kd [14]: 7.5 µM
- Kd [15]: 1.4 µM
- Kd [16]: 0.238 µM
- Kd [17]: 0.0008 µM
B4: F3'-1602 TriNKET (other)
chain: B1 chain
heavy: B1 heavy
light: B1 light
notes: CLEC12A scFv-Fc, NKG2D A49MI Fab-Fc, human IgG1 Fc; also called AB0237
